Source: paper PMC7162537

Molecular target: BRCA1 (UniProt P38398)
Test: anti-GFP co-IP from nuclear extract, blot
Conditions: reference: wild type GFP-CtIP; sites S327

binding against the reference: lost
Substance: CtIP (from UniProt Q99708) S327A
